Laboratory results reported in US20240301076A1 (CEPHALON, published 2024).

T1: human CXCR2 (human, UniProt P25025 1-360)
T1 construct: also called CXC chemokine receptor 2; hCXCR2
T1 sequence: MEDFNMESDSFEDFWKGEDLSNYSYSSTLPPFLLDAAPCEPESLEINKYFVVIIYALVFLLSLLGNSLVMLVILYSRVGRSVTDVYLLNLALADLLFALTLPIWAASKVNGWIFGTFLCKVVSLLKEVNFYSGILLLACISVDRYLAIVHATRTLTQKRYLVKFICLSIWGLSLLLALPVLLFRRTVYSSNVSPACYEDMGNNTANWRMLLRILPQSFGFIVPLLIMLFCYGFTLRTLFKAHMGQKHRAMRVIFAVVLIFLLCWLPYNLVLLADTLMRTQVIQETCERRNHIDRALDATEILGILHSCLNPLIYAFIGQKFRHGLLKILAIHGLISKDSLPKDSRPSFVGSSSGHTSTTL


What follows are binders tested against T1, human CXCR2 (assay: flow cytometry, CXCR2-transfected Expi293F cells).
Experimental: Harvested cells were resuspended in FACS buffer (1×PBS+0.5% (w/v) bovine serum albumin (BSA)+2 mM EDTA pH 7.2). Approximately 2×10⁵ cells were added per well in a 96-well round-bottomed plate. Cells were pelleted by centrifugation at 400 g for 5 mins at 4° C. and supernatants discarded. 25 μL of each test antibody or control antibody was added to the cells and incubated for 30 minutes at 4° C. Cells were washed twice in 100 μL FACS buffer followed by centrifugation at 400 g for 5 mins at 4° C.
For detection, 50 μL of secondary antibody (Table 2) was added to relevant samples. Commercially available antibodies that bound to transfected CXCR family members were used as positive controls to ensure that the cells were expressing the receptors. Cells were washed twice in 200 μL of FACS buffer followed by centrifugation at 400 g for 5 mins at 4° C. Before sample acquisition, cells were resuspended in 100 μL of FACS buffer. Samples were acquired using the high throughput sampler on a FACSCanto™ II cytometer (Beckton-Dickinson).
Each variant heavy chain was co-expressed with the parental light chain and vice versa.

Fold change in binding relative to BKO-4A8	Binder
1.18 fold	BKO-4A8 variant VH G52aD (antibody, human IgG4 S228P, lambda, V domains shown, IgG4 S228P, lambda; parental light chain; also called 4A8 VH G52aD) VH: EVQLLESGGGLVQPGGSLRLSCAASGFTFSSSTMSWVRQAPGKGLEWVSAISDRGRNTYYADSVKGRFTISRDNSRNTLYLQMNSLRAEDTAVYYCAIQMGYWGQGILVTVSS VL: QSALTQPPSASGSPGQSVTISCIGTSSDVGGYNYVSWYQQHPDKAPKLMIYEVNKRPSGVPDRFSGSKSGNTASLTVSGLQAEDEADYYCSSYAGNNNFGVFGGGTKLTVLG
0.86 fold	BKO-4A8 variant VH S32H (antibody, human IgG4 S228P, lambda, V domains shown, IgG4 S228P, lambda; parental light chain; also called 4A8 VH S32H) VH: EVQLLESGGGLVQPGGSLRLSCAASGFTFSSHTMSWVRQAPGKGLEWVSAISGRGRNTYYADSVKGRFTISRDNSRNTLYLQMNSLRAEDTAVYYCAIQMGYWGQGILVTVSS VL: QSALTQPPSASGSPGQSVTISCIGTSSDVGGYNYVSWYQQHPDKAPKLMIYEVNKRPSGVPDRFSGSKSGNTASLTVSGLQAEDEADYYCSSYAGNNNFGVFGGGTKLTVLG
1.4 fold	BKO-4A8 variant VL K53D (antibody, human IgG4 S228P, lambda, V domains shown, IgG4 S228P, lambda; parental heavy chain; also called 4A8 VL K53D) VH: EVQLLESGGGLVQPGGSLRLSCAASGFTFSSSTMSWVRQAPGKGLEWVSAISGRGRNTYYADSVKGRFTISRDNSRNTLYLQMNSLRAEDTAVYYCAIQMGYWGQGILVTVSS VL: QSALTQPPSASGSPGQSVTISCIGTSSDVGGYNYVSWYQQHPDKAPKLMIYEVNDRPSGVPDRFSGSKSGNTASLTVSGLQAEDEADYYCSSYAGNNNFGVFGGGTKLTVLG
1.4 fold	BKO-4A8 variant VL K53A (antibody, human IgG4 S228P, lambda, V domains shown, IgG4 S228P, lambda; parental heavy chain; also called 4A8 VL K53A) VH: EVQLLESGGGLVQPGGSLRLSCAASGFTFSSSTMSWVRQAPGKGLEWVSAISGRGRNTYYADSVKGRFTISRDNSRNTLYLQMNSLRAEDTAVYYCAIQMGYWGQGILVTVSS VL: QSALTQPPSASGSPGQSVTISCIGTSSDVGGYNYVSWYQQHPDKAPKLMIYEVNARPSGVPDRFSGSKSGNTASLTVSGLQAEDEADYYCSSYAGNNNFGVFGGGTKLTVLG
1.33 fold	BKO-4A8 variant VH S32Y (antibody, human IgG4 S228P, lambda, V domains shown, IgG4 S228P, lambda; parental light chain; also called 4A8 VH S32Y) VH: EVQLLESGGGLVQPGGSLRLSCAASGFTFSSYTMSWVRQAPGKGLEWVSAISGRGRNTYYADSVKGRFTISRDNSRNTLYLQMNSLRAEDTAVYYCAIQMGYWGQGILVTVSS VL: QSALTQPPSASGSPGQSVTISCIGTSSDVGGYNYVSWYQQHPDKAPKLMIYEVNKRPSGVPDRFSGSKSGNTASLTVSGLQAEDEADYYCSSYAGNNNFGVFGGGTKLTVLG
1.33 fold	BKO-4A8 variant VH S32L (antibody, human IgG4 S228P, lambda, V domains shown, IgG4 S228P, lambda; parental light chain; also called 4A8 VH S32L) VH: EVQLLESGGGLVQPGGSLRLSCAASGFTFSSLTMSWVRQAPGKGLEWVSAISGRGRNTYYADSVKGRFTISRDNSRNTLYLQMNSLRAEDTAVYYCAIQMGYWGQGILVTVSS VL: QSALTQPPSASGSPGQSVTISCIGTSSDVGGYNYVSWYQQHPDKAPKLMIYEVNKRPSGVPDRFSGSKSGNTASLTVSGLQAEDEADYYCSSYAGNNNFGVFGGGTKLTVLG
0.83 fold	BKO-4A8 variant VH S32W (antibody, human IgG4 S228P, lambda, V domains shown, IgG4 S228P, lambda; parental light chain; also called 4A8 VH S32W) VH: EVQLLESGGGLVQPGGSLRLSCAASGFTFSSWTMSWVRQAPGKGLEWVSAISGRGRNTYYADSVKGRFTISRDNSRNTLYLQMNSLRAEDTAVYYCAIQMGYWGQGILVTVSS VL: QSALTQPPSASGSPGQSVTISCIGTSSDVGGYNYVSWYQQHPDKAPKLMIYEVNKRPSGVPDRFSGSKSGNTASLTVSGLQAEDEADYYCSSYAGNNNFGVFGGGTKLTVLG
1.71 fold	BKO-4A8 variant VH S32Q (antibody, human IgG4 S228P, lambda, V domains shown, IgG4 S228P, lambda; parental light chain; also called 4A8 VH S32Q) VH: EVQLLESGGGLVQPGGSLRLSCAASGFTFSSQTMSWVRQAPGKGLEWVSAISGRGRNTYYADSVKGRFTISRDNSRNTLYLQMNSLRAEDTAVYYCAIQMGYWGQGILVTVSS VL: QSALTQPPSASGSPGQSVTISCIGTSSDVGGYNYVSWYQQHPDKAPKLMIYEVNKRPSGVPDRFSGSKSGNTASLTVSGLQAEDEADYYCSSYAGNNNFGVFGGGTKLTVLG
1.8 fold	BKO-4A8 variant VH I51H (antibody, human IgG4 S228P, lambda, V domains shown, IgG4 S228P, lambda; parental light chain; also called 4A8 VH I51H) VH: EVQLLESGGGLVQPGGSLRLSCAASGFTFSSSTMSWVRQAPGKGLEWVSAHSGRGRNTYYADSVKGRFTISRDNSRNTLYLQMNSLRAEDTAVYYCAIQMGYWGQGILVTVSS VL: QSALTQPPSASGSPGQSVTISCIGTSSDVGGYNYVSWYQQHPDKAPKLMIYEVNKRPSGVPDRFSGSKSGNTASLTVSGLQAEDEADYYCSSYAGNNNFGVFGGGTKLTVLG
1.3 fold	BKO-4A8 variant VH T33A (antibody, human IgG4 S228P, lambda, V domains shown, IgG4 S228P, lambda; parental light chain; also called 4A8 VH T33A) VH: EVQLLESGGGLVQPGGSLRLSCAASGFTFSSSAMSWVRQAPGKGLEWVSAISGRGRNTYYADSVKGRFTISRDNSRNTLYLQMNSLRAEDTAVYYCAIQMGYWGQGILVTVSS VL: QSALTQPPSASGSPGQSVTISCIGTSSDVGGYNYVSWYQQHPDKAPKLMIYEVNKRPSGVPDRFSGSKSGNTASLTVSGLQAEDEADYYCSSYAGNNNFGVFGGGTKLTVLG
1 fold	BKO-4A8 variant VH G101D (antibody, human IgG4 S228P, lambda, V domains shown, IgG4 S228P, lambda; parental light chain; also called 4A8 VH G101D) VH: EVQLLESGGGLVQPGGSLRLSCAASGFTFSSSTMSWVRQAPGKGLEWVSAISGRGRNTYYADSVKGRFTISRDNSRNTLYLQMNSLRAEDTAVYYCAIQMDYWGQGILVTVSS VL: QSALTQPPSASGSPGQSVTISCIGTSSDVGGYNYVSWYQQHPDKAPKLMIYEVNKRPSGVPDRFSGSKSGNTASLTVSGLQAEDEADYYCSSYAGNNNFGVFGGGTKLTVLG
1.5 fold	BKO-4A8 variant VH Y102S (antibody, human IgG4 S228P, lambda, V domains shown, IgG4 S228P, lambda; parental light chain; also called 4A8 VH Y102S) VH: EVQLLESGGGLVQPGGSLRLSCAASGFTFSSSTMSWVRQAPGKGLEWVSAISGRGRNTYYADSVKGRFTISRDNSRNTLYLQMNSLRAEDTAVYYCAIQMGSWGQGILVTVSS VL: QSALTQPPSASGSPGQSVTISCIGTSSDVGGYNYVSWYQQHPDKAPKLMIYEVNKRPSGVPDRFSGSKSGNTASLTVSGLQAEDEADYYCSSYAGNNNFGVFGGGTKLTVLG
0.64 fold	BKO-4A8 variant VH R53Q (antibody, human IgG4 S228P, lambda, V domains shown, IgG4 S228P, lambda; parental light chain; also called 4A8 VH R53Q) VH: EVQLLESGGGLVQPGGSLRLSCAASGFTFSSSTMSWVRQAPGKGLEWVSAISGQGRNTYYADSVKGRFTISRDNSRNTLYLQMNSLRAEDTAVYYCAIQMGYWGQGILVTVSS VL: QSALTQPPSASGSPGQSVTISCIGTSSDVGGYNYVSWYQQHPDKAPKLMIYEVNKRPSGVPDRFSGSKSGNTASLTVSGLQAEDEADYYCSSYAGNNNFGVFGGGTKLTVLG
1.17 fold	BKO-4A8 variant VH M34W (antibody, human IgG4 S228P, lambda, V domains shown, IgG4 S228P, lambda; parental light chain; also called 4A8 VH M34W) VH: EVQLLESGGGLVQPGGSLRLSCAASGFTFSSSTWSWVRQAPGKGLEWVSAISGRGRNTYYADSVKGRFTISRDNSRNTLYLQMNSLRAEDTAVYYCAIQMGYWGQGILVTVSS VL: QSALTQPPSASGSPGQSVTISCIGTSSDVGGYNYVSWYQQHPDKAPKLMIYEVNKRPSGVPDRFSGSKSGNTASLTVSGLQAEDEADYYCSSYAGNNNFGVFGGGTKLTVLG
1.6 fold	BKO-4A8 variant VH M34D (antibody, human IgG4 S228P, lambda, V domains shown, IgG4 S228P, lambda; parental light chain; also called 4A8 VH M34D) VH: EVQLLESGGGLVQPGGSLRLSCAASGFTFSSSTDSWVRQAPGKGLEWVSAISGRGRNTYYADSVKGRFTISRDNSRNTLYLQMNSLRAEDTAVYYCAIQMGYWGQGILVTVSS VL: QSALTQPPSASGSPGQSVTISCIGTSSDVGGYNYVSWYQQHPDKAPKLMIYEVNKRPSGVPDRFSGSKSGNTASLTVSGLQAEDEADYYCSSYAGNNNFGVFGGGTKLTVLG
1 fold	BKO-4A8 variant VH G54D (antibody, human IgG4 S228P, lambda, V domains shown, IgG4 S228P, lambda; parental light chain; also called 4A8 VH G54D) VH: EVQLLESGGGLVQPGGSLRLSCAASGFTFSSSTMSWVRQAPGKGLEWVSAISGRDRNTYYADSVKGRFTISRDNSRNTLYLQMNSLRAEDTAVYYCAIQMGYWGQGILVTVSS VL: QSALTQPPSASGSPGQSVTISCIGTSSDVGGYNYVSWYQQHPDKAPKLMIYEVNKRPSGVPDRFSGSKSGNTASLTVSGLQAEDEADYYCSSYAGNNNFGVFGGGTKLTVLG
1 fold	BKO-4A8 variant VH R53S (antibody, human IgG4 S228P, lambda, V domains shown, IgG4 S228P, lambda; parental light chain; also called 4A8 VH R53S) VH: EVQLLESGGGLVQPGGSLRLSCAASGFTFSSSTMSWVRQAPGKGLEWVSAISGSGRNTYYADSVKGRFTISRDNSRNTLYLQMNSLRAEDTAVYYCAIQMGYWGQGILVTVSS VL: QSALTQPPSASGSPGQSVTISCIGTSSDVGGYNYVSWYQQHPDKAPKLMIYEVNKRPSGVPDRFSGSKSGNTASLTVSGLQAEDEADYYCSSYAGNNNFGVFGGGTKLTVLG
2 fold	BKO-4A8 variant VL E50D (antibody, human IgG4 S228P, lambda, V domains shown, IgG4 S228P, lambda; parental heavy chain; also called 4A8 VL E50D) VH: EVQLLESGGGLVQPGGSLRLSCAASGFTFSSSTMSWVRQAPGKGLEWVSAISGRGRNTYYADSVKGRFTISRDNSRNTLYLQMNSLRAEDTAVYYCAIQMGYWGQGILVTVSS VL: QSALTQPPSASGSPGQSVTISCIGTSSDVGGYNYVSWYQQHPDKAPKLMIYDVNKRPSGVPDRFSGSKSGNTASLTVSGLQAEDEADYYCSSYAGNNNFGVFGGGTKLTVLG
1.3 fold	BKO-4A8 variant VH Y102K (antibody, human IgG4 S228P, lambda, V domains shown, IgG4 S228P, lambda; parental light chain; also called 4A8 VH Y102K) VH: EVQLLESGGGLVQPGGSLRLSCAASGFTFSSSTMSWVRQAPGKGLEWVSAISGRGRNTYYADSVKGRFTISRDNSRNTLYLQMNSLRAEDTAVYYCAIQMGKWGQGILVTVSS VL: QSALTQPPSASGSPGQSVTISCIGTSSDVGGYNYVSWYQQHPDKAPKLMIYEVNKRPSGVPDRFSGSKSGNTASLTVSGLQAEDEADYYCSSYAGNNNFGVFGGGTKLTVLG
